Laboratory results taken from the nanobody polyreactivity screen of Harvey et al. (2022).

Assay: yeast display, Sf9 membrane polyspecificity reagent, FACS + sequencing; frameworks hold sequencing errors
Procedure, shortened: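 Polyreactivity labels are assigned by the sorting gate from which each nanobody was recovered. The gates were low and high (top ~1%), set on anti-HA fluorescence for expression and streptavidin fluorescence for reagent binding. Before sorting, galactose-induced (36–48 hours) yeast display cells were stained for 1 hour at 4 °C with 10% biotinylated, detergent-solubilized Sf9 membrane reagent.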

Sequence | polyreactivity (PSR sort gate)
QVQLLESGGGLVQSGGILRLSCAASGRNFGRYAMGLYRQAPGKERELLATITWRGGITYYADSVKGRFTISRDNAMNTVSLQMNSLKPEDSAVYYCAAGYGRIPYVYWGKGTQVTVSS | high polyreactivity
QVQLVESGGGLVQAGGSLRLSCAASGITFGYYAMGWYRQAPGKERELVAAISSSGGSTYYADSVKGRFTISRDNAKNTVYLQMNSLKPEDTAVYFCAARYRKYSWYDYWGQGTQVTVSS | high polyreactivity
QVHLVESGGGLVQAGGSHRLSCAASGSIFWYNAMGWYRQAPGKERELVAGITYGGDTNYADSVKGRFTISRDNAKNTVYLQMNSLKPEDTAVYYCAKRWYGGRRYDYWGQGTQVTVSS | low polyreactivity
QVQLVESGGGLVQAGGSLRLSCAASGRFLVLNAMGWYRQAPAKERELVADLTSVGSTYYADSVKGRFTISRDNAKNTVDLQMNSLKPEDTAVYYFAADWNTYPDYQQSYFVSYEYNYWGQGTQVTVSS | low polyreactivity
QVQLVESGGGLVQAGGRLRLSCAASGSIIISNGMGWSRQAPGKERELVATISWIGGSTYYADSVKGRFTISRDNAKNTVYLQMNSLKPEDTAVYYCAADVVLARPFEGDYWGQGTQVTVSS | low polyreactivity
QVQLVESGGGLVQAGGSLRLSCPASGRIFVLGWYRQAPGKERELVAAINDSGDITYYADSVKGRFSISRDNAKYTVYLQMNSLKPEDTAVYYCAASAAYYGFYKSVTYDYWGQGSQVTVSS | low polyreactivity
QVQLVESGGGLVQAGGSLRLSCAASGSIFTLNAMGWYRQAPGKERELVAAISRSGGSTYYADSVKGRFTISRDNAKNTVYLQMNSLKPEDTAVYYCAVYVTRDSGWWLYDYWGQGTQVTVSS | high polyreactivity
QVQLVESGGGLVQAGGSLRLSCAASGRTFYTNAMGWYRQAPGKERELVASISGSGGSTYYADSVKGRFTISRDNAKNTVYLQMNSLKPEDTAVYYCAADPAPTVEFGKYDYWGQGTQVTVSS | low polyreactivity
QVQLVESAGGLVQAGGSLRLSCAASGSTFLSYFMGWYRQAPGKERELVAAITGTGGRTYYADSVKGRFTISRDNAKNTVYLQMNSLKPEDSAVYYCTAYRKHGYDYWGQGTQVTVSS | high polyreactivity
QDQLVESGGGLVQAGGSLRLSSAASGSIFRGYAMGWYRQAPGKERELVAAITFSGGSTYADSVKGRFTISRDNAKITVYLQMNSLKPEDTAVYYCAAKRTGHNWFTVYPYYSWGQGTQVTVSS | low polyreactivity
QVQLVESGGGLVQAGGSLRLSCAASGTIFSRNAMGWYRQAPGKERELVAAINARGGSTYYADSVKGRFTISRDNAKNTVYLQMNSLKPEDTAVYYCAARYGVGRADYYWGQGTQVTVSS | high polyreactivity
QVQLVESGGGLVQAGGSLRLICAASGSTFIGNVMGWYRQAPGKERELVAAITSTDSTDYADSVKGRFTISRDNAKNTVYLQMNSLKPEDTAVYYCNAEYEYGSAYWSGVYYWYNYWGQGTQVTVSS | high polyreactivity
QVQLVESGGGLVQAGGSLRLSCAASGITFGYYAMGWYRQAPGKERELVAAITWSGGSTYYADSVKGRFTISRDNAKNTVYLQMNSLKPEDTAVYYCNADRFGRAHVYPEFDYWGQGTQVTVSS | low polyreactivity
QVQLVETGGGLVQAGGSLRLSCAASGSTFKGYAMGWYRQSPGKERELVAAISRSGTRTYYADSVKGRFTISRDNAKNTVYLQMNSLKPEDTAVSFCNKDTGYIAHDNENGRDYWGQGTQVTVSS | low polyreactivity
QVQLVESGGGLVHAGGSLRLSCAASGRTFRNNAMVWYRQAPGKEREWVAAITSGGSTNYADSVKGRFTISRDNAKNPVYLQMISLKPEDTGVYYCAKDFWYVTGGWSSGMDYWGQGTQVTVSS | low polyreactivity
QVQLVESGGGLLQAGGSLRLSCAASGNTFAYNTMGWYIQAPGKERELVAAILTRGGSTYYADSVKGRFTISRDNAKKTVYLQMNSLNREDTAVYYGAADYRFHGYWSYDYWGQGTQVTVSS | low polyreactivity
QVQLLESGGGLVQAGGSLRLSCAASGRTFQRNAMGWYRQAPGKETELVATITTNGGSTYYADSVKGRFTISRDNAKNTVYLQMNSLKPEDTAVYYCAAPFNPRVRTLRSVRMDYWGQGTQVTVSS | low polyreactivity
QVQIEESGGGLVQAGGSLRLSCAASGSIFGKYAMGWYRQAPGKERELVAAITWSGGYTRYADSGKGRFTISRDKAKNTVYLLMNSLKPEDTAVYYCADPSTESKYYYWGQGTQVTVSS | high polyreactivity
QVQLVESGGGLVQAGGSLRLSCAASGSTFRVNAMGWYRQAPGKERELVAAIRKSGGSTYADSVKGRFTISRDNAKNTVYLQMNSLKPEDTAVYYCNADATAWLGWDDNYWGQGSQVTVSS | low polyreactivity
QVQLVESGGGLVQAGGSLRLSCAASGIIFVWYTMGWYRQAPGKERELVAAIDSIGDGTYYADSVKGRFTISRDNAKNTVYLQMNSLKPEDTAVYYCAVDDYYEMDYWGQGTQVTVSS | low polyreactivity
QVQLVESGGGLVQAGGSLRLSFASSGRIFIAYAMGWYRQAPGIERELVAAITSGGGTYYADSVKGRFTISRDNAKNTVYLQMNSLKPVDTAVYYCAAACGRRYPDKFVAITPTYDFWGQGTQVTVSS | low polyreactivity
QVQLEESGGGLVQAGGSLRFSCAASGRIYRYAMGWYRQAPGKERELVASITYSGGSTYYADSVKGRFTISRDNAKNTVYLQMNSLKPEDTAVYYCAASTRHVHYGYWGQGTQVTVSS | high polyreactivity

Sequence | polyreactivity (PSR sort gate)
QVQLVDSGGGLVQAGCSIRITCSATGITFVANTKGWYRQEPVKERELVDTITSSGGSTYYADSVKGRFTISRDNAKNSVYLQMNSLKPEDTAVFYCAASDLRYRGNYVYLPSEYWGQGSQVTVSS | low polyreactivity
QVQLVESGGGLVQAGGSLRLSCAASASIFASNAMGLYRQAPGKERELVAAINSADSTNYADSVKGRFRISRDNAKNTVYLQMNRLKPEDPAVFYCARGLEERYDYWGLGTQVTVSS | low polyreactivity
QVQLVESGGGLVQAGGSLRLSCAASGSTFNHYAMGWYRQAPGKDRELVAAITKSGGSTYADSVKGRFTISRDNAKNSVYLQMNSLKPEDTAVYFCAAGRRKYGTKGRGDYWGQGTQVTVSS | low polyreactivity
QVQLVESGGGLVQAGGSLRLSCAASGSIFYPYVMGWYRQAPGKERELVAAITTSVGSTYYADSVKGRFTISRDNAKNTVYLQMNSLKPEDTAVYYCAAKYFGSRRPGRYNYWGQGTQVTVSS | high polyreactivity
QVQIVESGGGLVQAGCILRLSCAASGSTFYVNAMGWYRQAPGKEWELVAVISTGGSTYYADSVKGRFTISRDNAKNTVYLQMNSLKPEDTAVYYCAKRDLPDCSGTPNVIPFDYWGQGTQVTVSS | low polyreactivity
QVQLVESGGGLVQAGGSLRLSCAASGFTFDRYANGWYRQAPWKAWELVAAITRRGGSTYYADSVKGRFTISRDNAKKTVYLQMNSLKPEDTAVYYCNARTYVTVDYDYCGQGTQVTVSS | high polyreactivity
QVQLVESGGGLVQAGCSLRLSCAASGSISSFYAMGWYRQAPGKERELVAGITSGGSTNYADSVKGRFTISRDNAKNTVYLQMNSLKPEDTAVYYCAAVYKGAGTHFDVFVKEFDYWGLGTQVTVSS | low polyreactivity
QVQLQESGGGLVQAGGSLRLSCAASGFIFARNYMGWNRQAPGKERELVAGIGVGASTNYADSVKGRFTISRDNAKNTVYLQINSLEPEDTAVYYCAVGDTVLGYHYYWGQGTQVTVSI | low polyreactivity
QVQLVESGGGLVQAGGSHRLSSAASGLTFGGNAMGWYRQAPGKERELVAGISSSGNTNYADSVKGRFTISRDNAKNTVYLQMNSLKPEDTAVYYCAADENITYPVYDMYDWGQGTQVTVSS | low polyreactivity
QVQLVESGGGLVQAGGSLRLSCAASGRIVKYAMGWYRQAPGKERELVAAISSSGGTTYYADSVKGRFTISRDNAKNTVYLQMISLKPEDTAVYYCAAPGTYTSRGSDYWGQGTQVTVSS | high polyreactivity
QVQLVESGGGLVQAGGSLRLSCAASGITFDKYAMGWYRQAPGKERELVARITSGGGTNYADSVKGRFTISRDNAKNTVYLQMNSLKPEDTAVYSCNKRTSPKRFDYWGQGTQVTVSS | high polyreactivity
QVQLVESGGGLVQAGGSLRLSCAASGRTFQWYTMGWYRQAPGKERELVAAISLSGTSTYYADSVKGRFTISRDNAKNTVYLQMNSLNPEDTAVYYCAAEDIGRYYRLDYWGQGTQVTVSS | low polyreactivity
QVQLVESGGGLVQAGGSLRLSCAASGSTFYTNAMGWYRQAPGKDRELVAVITSRGGGTYYADSVKGRFTISRDYAKNTVYLQMNRLKPEDTSVYYCAAYPLVSWGRHGTKGDYWGQGTQVTVSS | low polyreactivity
QVQLVESGGGLVQAGGSLRLSCAASGSTFGVYAMGWYRQAPGKERELVASITSGTSTYADSVKGRFTISRDNAKNTVYLQMNSLKPEDTAVYYCAAEYLYFNLGYDYWGQGTQVTVSS | low polyreactivity
QVQLVESGGGLVQAGGSLRLSCAASGSIFAFNAMGWYRQAPGKERELVAGITISDSTNYADSVKGRFTISRDNAKNTVYLQMNSLKPEDTAVYYCNADYEQYVYWYWFIKYDYWGQGTQVTVSS | low polyreactivity
QVQLVESGGGLVQAGGSLRLSFAASGIIFTRYAMGWYRQAPGKERELVARISWRGSSTSYPDSVKGRFTISRDNAKNTVYLQMNSLKPEDSAVYYCAARYLYLWADYEFGYWVQGTQVTVSS | high polyreactivity
QVQLVESGGGLVQAGGSLRLSCAASGRIFYAYTIGWYRQAPGKERELVAAISGSGSTYYADSVKGRFTISRDNAKNTVYLQMNSLKPVDTAVYYCAADVTGGRKYDYWGQGTQVSVSS | low polyreactivity
QVQLVESGGGLDQAGGSLRLSCAASGRIIRYYAKGWYRQAPGKEREFVATISSGGSTNYADSVKGRFTISRDNAKNNVYLQMNSLKQEHTSVYYCNRVYSRHVWGQGTQVTVSS | high polyreactivity
QVQLVESAGGLVQAGGSLSLSCAATGSILQEYAMGSYRQAPGTERELVAAITRRGGNTYYADSVKGRFTISRDNAKNTVYLQMNSLKPEDTAVYYCAAPHGKYSWQYEYWGQGTQVTVSS | low polyreactivity
QVQLVESGGGLVQAGGSLRLSCAASGSIFGGYALGWYRQAPGNERELVAAITSSGGRTYYADSVKGRFTISRDNAKNTVYLQMNSLKPEDTAVYYCAARYTRWRYIYKDYDYWGQGTQVTVSS | high polyreactivity
QVQLVETGGGLVQAGGSLRLSCAASVFTFPTYTMGWYRQAPGKEREFVARITKRGGSTYYADSVKGRFTISRVNVKNTVYLQRKCVKPEDTAVYYCDAGFWWSSYGYWGQGSQVTVSS | high polyreactivity
